# Measured values from patent publication US20110014182A1 (published 2011).
# Columns and labels:
# [1] = biological target: T1, human β-amyloid (1-40) peptide (human, UniProt P05067 672-711); assay: SPR (Biacore T100), antibody captured on anti-human IgG, beta amyloid (1-40), 37°C
# T1 construct: domain: β-amyloid (1-40); Used free in solution, coated on plates, or N- or C-terminally biotinylated, as told under assay; also called Aβ peptide (1-40); Aβ1-40
# Experimental: Anti-human IgG (Biacore BR-1008-39) was coupled to a CM5 biosensor chip by primary amine coupling. The anti-beta amyloid antibodies were captured on this surface. Beta amyloid (1-40) was then passed over at 256, 64, 16, 4 and 1 nM, with a 0 nM (ie buffer alone passed over the captured antibody surface) used for double referencing. […] The data was analysed using the 1:1 model inherent to the T100. The run was carried out at 25° C. and 37° C. using HBS-EP as the running buffer.
# From this panel some constructs were also assessed for binding kinetics at physiological temperature.
# [2] = biological target: T1, human β-amyloid (1-40) peptide; assay: SPR (Biacore T100), antibody captured on protein A, human β-amyloid 1-40 at 256-2 nM, 25°C, mean of three experiments
# Experimental: The affinity of selected heavy and light chain combinations was determined using a Biacore T100 instrument. Three independent experiments were performed using humanised antibody immobilised via protein A surface Biacore chips and injection of β-amyloid 1-40 peptides. The chimeric molecule of 6F6 served as a reference molecule. For this Protein A was immobilised on a CM5 chip by primary amine coupling in accordance with manufactures recommendations. Anti-β-amyloid antibodies were captured on this surface and after a period of stabilisation human β-amyloid 1-40 was passed over at concentrations 256-2 nM in halving dilutions. A buffer injection over the captured antibody surface was used to double reference the data set in accordance with Biacore best practice. […] The work was carried out in HBS-EP at 25° C. Results are summarised in Table 13 as the mean of all three experiments.
# [3] = biological target: T1, human β-amyloid (1-40) peptide; assay: competition ELISA, antibody pre-incubated with biotinylated β-amyloid 1-40; competitor immobilised mouse 6F6; Exp 2
# Experimental: (§1) 6F6c and humanised antibodies H11L2, H11L9, H11L10, H11L12 and H11L13 were assessed for their ability to bind Aβ1-40 peptide in solution and inhibit the interaction of human Aβ1-40 peptide with mouse 6F6 monoclonal antibody in a competition ELISA. A constant concentration of biotinylated β-amyloid 1-40 was pre-incubated with serial diluted amounts of humanised 6F6 antibody variants. The mixture including complexed and free amyloid was then added to wells containing immobilised mouse 6F6 monoclonal antibody and incubated for 15 minutes at room temperature. Plates were washed and the amount of free β-amyloid that was still available for binding the immobilised parental 6F6 monoclonal antibody was then detected using streptavidin-HRP conjugate.
# (§2) All humanised variants were able to effectively compete for binding to 6F6 parental monoclonal antibody with very similar IC50 values.
# [4] = biological target: T1, human β-amyloid (1-40) peptide; assay: competition ELISA, antibody pre-incubated with biotinylated β-amyloid 1-40; competitor immobilised mouse 6F6; Exp 1
# Experimental: as §1, §2
# [5] = biological target: T1, human β-amyloid (1-40) peptide; assay: ELISA on human Aβ peptide (1-40)
# [6] = biological target: T1, human β-amyloid (1-40) peptide; assay: ELISA on human Aβ peptide (1-40), in combination with H11
# T1 sequence (P05067 672-711 limits assumed): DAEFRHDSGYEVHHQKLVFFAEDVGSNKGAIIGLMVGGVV
binder,measurement,setting,value
"humanised de-immunised construct H48L17 (antibody, name in Kabat numbering, V domains shown) VH: QVQLVQSGAEVKEPGASVKVSCKGSGFNIHVYYVHWLRQLPEKGLEWIGRIDPENGETIYTPKFQDKATLTVDTSTDTAYMELSSLRSEDTAVYYCVSSGYWGQGTLVTVSS VL: DIVMTQSPLSNPVTPGEPASISCRSSKSLLHRNGITYLYWYLQKPGQSPQLLIYQMSHLASGVPDRFSSSGSGTDFTLKISRVEAEDVGVYYCAQNLELWTFGQGTKVEIK",Kd,[1],4.72 nM
"humanised antibody H11L2 (antibody, human IgG1, kappa, name in Kabat numbering, Human IgG1 Fc mutated, human kappa) heavy: not shown light: DIVMTQSPLSLPVTPGEPASISCRSSKSLLHRNGITYLYWYLQKPGQSPQLLIYQMSNLASGVPDRFSSSGSGTDFTLKISRVEAEDVGVYYCAQNLELWTFGQGTKVEIKRTVAAPSVFIFPPSDEQLKSGTASVVCLLNNFYPREAKVQWKVDNALQSGNSQESVTEQDSKDSTYSLSSTLTLSKADYEKHKVYACEVTHQGLSSPVTKSFNRGEC",Kd,[2],9.57 nM
same,IC50,[3],0.578 µg/mL
same,IC50,[4],0.862 µg/mL
"humanised VH variant H26 in combination with L2 light chain (antibody, human IgG1, kappa, name in Kabat numbering, V domains shown, Kabat numbering) VH: QVQLVQSGAEVKKPGASVKVSCKGSGFNIKVYYVHWLRQAPGKGLEWIGRIDPENGETIYTPKFQDRVTLTEDTSSDTAYMELSSLRSEDTAVYYCVSSGYWGQGTLVTVSS VL: DIVMTQSPLSLPVTPGEPASISCRSSKSLLHRNGITYLYWYLQKPGQSPQLLIYQMSNLASGVPDRFSSSGSGTDFTLKISRVEAEDVGVYYCAQNLELWTFGQGTKVEIKR",binding result,[5],binds
"humanised antibody H11L10 (antibody, human IgG1, kappa, name in Kabat numbering) heavy: not shown light: DIVMTQSALSLPVTPGEPASISCRSSKSLLHRNGITYLYWYLQKPGQSPQLLIYQMSNLASGVPDRFSSSGSGTDFTLKISRVEAEDVGVYYCAQNLELWTFGQGTKVEIKRTVAAPSVFIFPPSDEQLKSGTASVVCLLNNFYPREAKVQWKVDNALQSGNSQESVTEQDSKDSTYSLSSTLTLSKADYEKHKVYACEVTHQGLSSPVTKSFNRGEC",Kd,[2],5.57 nM
same,IC50,[4],0.622 µg/mL
"humanised VH variant H28 in combination with L2 light chain (antibody, human IgG1, kappa, name in Kabat numbering, Kabat numbering) heavy: not shown light: DIVMTQSPLSLPVTPGEPASISCRSSKSLLHRNGITYLYWYLQKPGQSPQLLIYQMSNLASGVPDRFSSSGSGTDFTLKISRVEAEDVGVYYCAQNLELWTFGQGTKVEIKRTVAAPSVFIFPPSDEQLKSGTASVVCLLNNFYPREAKVQWKVDNALQSGNSQESVTEQDSKDSTYSLSSTLTLSKADYEKHKVYACEVTHQGLSSPVTKSFNRGEC",binding result,[5],binds
"humanised VH variant H24 in combination with L2 light chain (antibody, human IgG1, kappa, name in Kabat numbering, V domains shown, Kabat numbering) VH: QVQLVQSGAEVKKPGASVKVSCKGSGFNIKVYYVHWLRQAPGKGLEWMGRIDPENGETIYTPKFQDRVTMTEDTSSNTAYMELSSLRSEDTAVYYCVSSGYWGQGTLVTVSS VL: DIVMTQSPLSLPVTPGEPASISCRSSKSLLHRNGITYLYWYLQKPGQSPQLLIYQMSNLASGVPDRFSSSGSGTDFTLKISRVEAEDVGVYYCAQNLELWTFGQGTKVEIKR",binding result,[5],binds
"humanised VH variant H23 in combination with L2 light chain (antibody, human IgG1, kappa, name in Kabat numbering, V domains shown, Kabat numbering) VH: QVQLVQSGAEVKKPGASVKVSCKGSGFNIKVYYVHWLRQAPGKGLEWIGRIDPENGETIYTPKFQDRVTMTEDTSTDTAYMELSSLRSEDTAVYYCVSSGYWGQGTLVTVSS VL: DIVMTQSPLSLPVTPGEPASISCRSSKSLLHRNGITYLYWYLQKPGQSPQLLIYQMSNLASGVPDRFSSSGSGTDFTLKISRVEAEDVGVYYCAQNLELWTFGQGTKVEIKR",binding result,[5],binds
"humanised VH variant H21 in combination with L2 light chain (antibody, human IgG1, kappa, name in Kabat numbering, V domains shown) VH: QVQLVQSGAEVKKPGASVKVSCKGSGFNIKVYYVHWLRQLPGKGLEWMGRIDPENGETIYTPKFQDRVTMTEDTSTDTAYMELSSLRSEDTAVYYCVSSGYWGQGTLVTVSS VL: DIVMTQSPLSLPVTPGEPASISCRSSKSLLHRNGITYLYWYLQKPGQSPQLLIYQMSNLASGVPDRFSSSGSGTDFTLKISRVEAEDVGVYYCAQNLELWTFGQGTKVEIKR",binding result,[5],binds
"humanised antibody H11L13 (antibody, human IgG1, kappa, name in Kabat numbering) heavy: not shown light: DIVMTQSALSLPVTPGEPASISCRSSKSLLHRNGITYLYWYLQKPGQPPQLLIYQMSNLASGVPDRFSGSGSGTDFTLKISRVEAEDVGVYYCAQNLELWTFGQGTKVEIKRTVAAPSVFIFPPSDEQLKSGTASVVCLLNNFYPREAKVQWKVDNALQSGNSQESVTEQDSKDSTYSLSSTLTLSKADYEKHKVYACEVTHQGLSSPVTKSFNRGEC",Kd,[2],7.41 nM
same,IC50,[3],0.531 µg/mL
same,IC50,[4],0.616 µg/mL
"humanised VL variant L4 in combination with H11 (antibody, human IgG1, kappa, name in Kabat numbering, V domains shown, Kabat numbering) VH: QVQLVQSGAEVKEPGASVKVSCKGSGFNIKVYYVHWLRQLPGKGLEWIGRIDPENGETIYTPKFQDKATLTVDTSTDTAYMELSSLRSEDTAVYYCVSSGYWGQGTLVTVSS VL: DIVMTQSPLSLPVTPGEPASISCRSSKSLLHRNGITYLYWYLQKPGQSPQLLIYQMSNLASGVPDRFTGSGSGTDFTLKISRVEAEDVGVYYCAQNLELWTFGQGTKVEIKR",binding result,[6],binds
"humanised VH variant H27 in combination with L2 light chain (antibody, human IgG1, kappa, name in Kabat numbering, V domains shown, Kabat numbering) VH: QVQLVQSGAEVKEPGASVKVSCKGSGFNIKVYYVHWLRQAPGKGLEWMGRIDPENGETIYTPKFQDKATMTVDTSTDTAYMELSSLRSEDTAVYYCVSSGYWGQGTLVTVSS VL: DIVMTQSPLSLPVTPGEPASISCRSSKSLLHRNGITYLYWYLQKPGQSPQLLIYQMSNLASGVPDRFSSSGSGTDFTLKISRVEAEDVGVYYCAQNLELWTFGQGTKVEIKR",binding result,[5],binds
"humanised VH variant H29 in combination with L2 light chain (antibody, human IgG1, kappa, name in Kabat numbering, Kabat numbering) heavy: not shown light: DIVMTQSPLSLPVTPGEPASISCRSSKSLLHRNGITYLYWYLQKPGQSPQLLIYQMSNLASGVPDRFSSSGSGTDFTLKISRVEAEDVGVYYCAQNLELWTFGQGTKVEIKRTVAAPSVFIFPPSDEQLKSGTASVVCLLNNFYPREAKVQWKVDNALQSGNSQESVTEQDSKDSTYSLSSTLTLSKADYEKHKVYACEVTHQGLSSPVTKSFNRGEC",binding result,[5],binds
"humanised VL variant L8 in combination with H11 (antibody, human IgG1, kappa, name in Kabat numbering, Kabat numbering) heavy: not shown light: DIVMTQSPLSLPVTPGEPASISCRSSKSLLHRNGITYLYWYLQKPGQPPQLLIYQMSNLASGVPDRFTGSGSGTDFTLKISRVEAEDVGVYYCAQNLELWTFGQGTKVEIKRTVAAPSVFIFPPSDEQLKSGTASVVCLLNNFYPREAKVQWKVDNALQSGNSQESVTEQDSKDSTYSLSSTLTLSKADYEKHKVYACEVTHQGLSSPVTKSFNRGEC",binding result,[6],binds
"humanised VL variant L6 in combination with H11 (antibody, human IgG1, kappa, name in Kabat numbering, Kabat numbering) heavy: not shown light: DIVMTQSPLSLPVTPGEPASISCRSSKSLLHRNGITYLYWYLQKPGQPPQLLIYQMSNLASGVPDRFTGSGSGTDFTLKISRVEAEDVGVYYCAQNLELWTFGGGTKLEIKRTVAAPSVFIFPPSDEQLKSGTASVVCLLNNFYPREAKVQWKVDNALQSGNSQESVTEQDSKDSTYSLSSTLTLSKADYEKHKVYACEVTHQGLSSPVTKSFNRGEC",binding result,[6],binds
"humanised VL variant L7 in combination with H11 (antibody, human IgG1, kappa, name in Kabat numbering, V domains shown, Kabat numbering) VH: QVQLVQSGAEVKEPGASVKVSCKGSGFNIKVYYVHWLRQLPGKGLEWIGRIDPENGETIYTPKFQDKATLTVDTSTDTAYMELSSLRSEDTAVYYCVSSGYWGQGTLVTVSS VL: DIVMTQSPLSLPVTPGEPASISCRSSKSLLHRNGITYLYWYLQKPGQPPQLLIYQMSNLASGVPDRFSSSGSGTDFTLKISRVEAEDVGVYYCAQNLELWTFGQGTKVEIKR",binding result,[6],binds
"humanised antibody H11L12 (antibody, human IgG1, kappa, name in Kabat numbering) heavy: not shown light: DIVMTQSPLSNPVTPGEPASISCRSSKSLLHRNGITYLYWYLQKPGQPPQLLIYQMSNLASGVPDRFSGSGSGTDFTLKISRVEAEDVGVYYCAQNLELWTFGQGTKVEIKRTVAAPSVFIFPPSDEQLKSGTASVVCLLNNFYPREAKVQWKVDNALQSGNSQESVTEQDSKDSTYSLSSTLTLSKADYEKHKVYACEVTHQGLSSPVTKSFNRGEC",Kd,[2],6.95 nM
same,IC50,[3],0.549 µg/mL
same,IC50,[4],0.561 µg/mL
"humanised VH variant H25 in combination with L2 light chain (antibody, human IgG1, kappa, name in Kabat numbering, V domains shown, Kabat numbering) VH: QVQLVQSGAEVKKPGASVKVSCKGSGFNIKVYYVHWLRQAPGKGLEWIGRIDPENGETIYTPKFQDRVTLTEDTSTDTAYMELSSLRSEDTAVYYCVSSGYWGQGTLVTVSS VL: DIVMTQSPLSLPVTPGEPASISCRSSKSLLHRNGITYLYWYLQKPGQSPQLLIYQMSNLASGVPDRFSSSGSGTDFTLKISRVEAEDVGVYYCAQNLELWTFGQGTKVEIKR",binding result,[5],binds
